Results on three substances are retold here after patent publication US6448071.

pKd: −log10 of the molar value.

In test [1] the target is SL9 loaded H-2 L^d (murine) (UniProt P01897). The test is described as follows: flow cytometry, direct saturation of FITC-30.5.7 Fab on peptide-loaded RMA-S L^d cells. (In general: In flow cytometry, cells or beads pass a laser one at a time.)
For test [2], the target named is p2Ca loaded H-2 L^d (murine) (UniProt P01897). The description is as above.
Test [3] deals with QL9 loaded H-2 L^d (murine) (UniProt P01897). The description is as above.
The target in test [4] is pMCMV loaded H-2 L^d (murine) (UniProt P01897).
For test [5], the target named is unloaded H-2 L^d on RMA-S L^d cells (murine) (UniProt P01897). The test can be described thus: direct flow cytometry on RMA-S L^d cells without added peptide.
Test [6] concerns the target H-2 L^d naturally loaded with endogenous peptides on cells (RENCA; MC57G L^d) (murine) (UniProt P01897). The test can be described thus: direct flow cytometry on RENCA cells.
Test [7] addresses SIY loaded H-2 K^bm3 on T2 K^bm3 cells (mouse). The test is described as follows: direct flow cytometry on peptide-loaded T2 K^bm3 cells.
Test [8] concerns the target unloaded H-2 L^d on RMA-S L^d cells (murine) (UniProt P01897). The test can be described thus: direct flow cytometry on RMA-S L^d cells.
For test [9], the target named is tum^- loaded H-2 L^d (murine) (UniProt P01897). The test is described as follows: direct flow cytometry on peptide-loaded RMA-S L^d cells.
Test [10] concerns the target SL9 loaded H-2 L^d (murine) (UniProt P01897). The description is as above.
In test [11] the target is p2Ca loaded H-2 L^d (murine) (UniProt P01897). The test is described as follows: flow cytometry competition with constant FITC-30.5.7 Fab on peptide-loaded RMA-S L^d cells.
Test [12] has as its target SIY loaded H-2 K^b on T2 K^b cells (mouse) (UniProt P01901). The test is described as follows: direct flow cytometry on peptide-loaded T2 K^b cells.
Test [13] has as its target pVSV loaded H-2 K^b on T2 K^b cells (mouse) (UniProt P01901). Described as above.

Chain of soluble divalent 2C TcR/Ig (A2KF29 whole entry, looked up, tested part not stated): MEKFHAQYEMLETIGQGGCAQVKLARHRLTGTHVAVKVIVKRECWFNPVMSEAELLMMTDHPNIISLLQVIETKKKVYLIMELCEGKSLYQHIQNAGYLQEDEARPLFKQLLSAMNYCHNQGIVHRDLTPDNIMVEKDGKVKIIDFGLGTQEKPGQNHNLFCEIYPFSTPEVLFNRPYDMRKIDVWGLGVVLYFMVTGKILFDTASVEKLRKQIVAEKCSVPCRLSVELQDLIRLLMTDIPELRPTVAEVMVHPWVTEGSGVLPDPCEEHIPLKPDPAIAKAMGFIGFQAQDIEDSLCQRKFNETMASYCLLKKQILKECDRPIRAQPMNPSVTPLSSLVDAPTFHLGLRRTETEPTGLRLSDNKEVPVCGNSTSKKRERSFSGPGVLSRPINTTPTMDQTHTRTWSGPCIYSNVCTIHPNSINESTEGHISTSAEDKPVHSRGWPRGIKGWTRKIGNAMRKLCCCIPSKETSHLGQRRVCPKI
Chain of unloaded H-2 L^d on RMA-S L^d cells (murine) (P01897 25-309): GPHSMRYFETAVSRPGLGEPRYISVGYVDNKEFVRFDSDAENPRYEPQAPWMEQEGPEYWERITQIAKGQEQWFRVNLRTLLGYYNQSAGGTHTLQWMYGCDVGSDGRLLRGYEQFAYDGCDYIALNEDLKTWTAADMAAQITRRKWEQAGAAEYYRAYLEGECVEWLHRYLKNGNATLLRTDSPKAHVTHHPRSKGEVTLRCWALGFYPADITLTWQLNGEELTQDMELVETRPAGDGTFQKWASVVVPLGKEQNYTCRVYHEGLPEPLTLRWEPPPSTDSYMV
Chain of SL9 loaded H-2 L^d (murine) (P01897 25-309): as above
Chain of p2Ca loaded H-2 L^d (murine) (P01897 25-309): as above
Chain of H-2 L^d naturally loaded with endogenous peptides on cells (RENCA; MC57G L^d) (murine) (P01897 25-362): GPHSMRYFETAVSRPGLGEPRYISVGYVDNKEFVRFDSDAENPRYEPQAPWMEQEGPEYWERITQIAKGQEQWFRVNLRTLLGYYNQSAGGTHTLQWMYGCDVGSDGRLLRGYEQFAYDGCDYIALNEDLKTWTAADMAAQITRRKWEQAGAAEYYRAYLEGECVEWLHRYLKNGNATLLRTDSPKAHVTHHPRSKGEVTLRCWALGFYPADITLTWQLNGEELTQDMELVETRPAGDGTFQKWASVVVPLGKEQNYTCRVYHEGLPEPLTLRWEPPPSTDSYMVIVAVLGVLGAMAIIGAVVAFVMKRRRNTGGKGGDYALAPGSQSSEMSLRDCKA
Chain of pMCMV loaded H-2 L^d (murine) (P01897 25-309): as the sequence (P01897 25-309) above
Chain of tum^- loaded H-2 L^d (murine) (P01897 25-309): as above
Chain of QL9 loaded H-2 L^d (murine) (P01897 25-309): as above
Chain of SIY loaded H-2 K^b on T2 K^b cells (mouse) (P01901 22-369): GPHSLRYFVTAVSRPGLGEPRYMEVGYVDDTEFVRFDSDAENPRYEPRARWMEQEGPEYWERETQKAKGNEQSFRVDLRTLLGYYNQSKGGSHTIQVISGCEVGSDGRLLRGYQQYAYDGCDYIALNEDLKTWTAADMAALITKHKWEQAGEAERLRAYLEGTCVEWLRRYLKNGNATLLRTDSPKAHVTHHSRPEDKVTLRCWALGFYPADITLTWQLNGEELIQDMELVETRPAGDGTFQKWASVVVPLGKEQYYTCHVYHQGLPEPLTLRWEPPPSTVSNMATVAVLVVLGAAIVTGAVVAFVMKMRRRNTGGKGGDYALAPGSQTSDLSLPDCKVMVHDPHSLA
Chain of pVSV loaded H-2 K^b on T2 K^b cells (mouse) (P01901 22-369): as above

Regarding FITC labeled 30.5.7 Fab, the pKd in test [1] is 8.19 to 8.32; in test [2], 8.24; in test [3], 7.91; in test [4] it was 8.32.

On to mAb 30.5.7 (antibody), for which the fold increase of mean channel fluorescence, cells at 27° C. against cells at 37° C. in test [5] is 5 fold. The same substance had a fold increase of reactivity on γ-IFN treated cells (5-50 units/ml) over untreated cells in test [6] of 5 to 6 fold.

Consider “soluble divalent 2C TcR/Ig (from UniProt A2KF29)”, for which the MCF is 36 MCF in [7]; 10 MCF in [8]; 10 MCF in test [9]; 100 MCF in test [10]; 276 MCF in test [12]; 14 MCF in test [13]. The same substance displayed a Kapp in [11] of 108 nM.

By pKd is commonly meant the negative decadic logarithm of the Kd, by convention in mol/L. Read a high pKd as a small Kd.
